Laboratory results: patent US20230287125A1 (LEPU BIOPHARMA, published 2023)

Experiments:
[1] = biological target: rat PD-L1 protein (rat, UniProt D4AE25 19-239); assay: ELISA, coated rat PD-L1
[2] = biological target: mouse PD-L1 protein (mouse, UniProt Q9EP73 19-239); assay: ELISA, coated mouse PD-L1
[3] = biological target: cynomolgus PD-L1 protein (cynomolgus, UniProt G7PSE7 19-238); assay: ELISA, coated cynomolgus PD-L1
[4] = biological target: T1, human PD-L1-Fc protein (human, UniProt Q9NZQ7 19-238); assay: competition ELISA, coated human PD-L1-Fc, biotin-labeled human PD-1-Fc as competitor
T1 construct: coating antigen of the ELISAs; also called rhPD-L1-Fc; not shown: Fc
Experimental: (§1) Briefly, microtiter plates were coated with human PD-L1-Fc protein at 0.5 μg/ml in PBS, 100 μl/well at 4° C. overnight, then blocked with 150 μl/well of 1% BSA. […] The plates were washed with PBS/Tween and then incubated with Streptavidin-HRP for 10 mins at 37° C. After washing, the plates were developed with TMB substrate and analyzed by spectrophotometer at OD 450 nm.

[5] = biological target: T2, human PD-L1 over-expressed on CHOK1 cells (human, UniProt Q9NZQ7 19-290); assay: flow cytometry (MFI) on PDL1-CHOK1 cells; upper right panel (with the Hu67F3G7 antibodies)
T2 construct: whole, on cells; also called PDL1-CHOK1 cells
Experimental: To evaluate the antigen binding property, the humanized antibodies were analyzed for their binding to PD-L1 overexpressed on mammalian cells by FACS. Briefly, PDL1-CHOK1 cells were firstly incubated with 3-fold serious diluted humanized antibodies starting at 15 μg/ml at 4° C. for 40 mins. After washed by PBS, the Alexa Fluor® 647 AffiniPure Goat Anti-Human IgG (H+L) antibody was added to each well and incubated at 4° C. for 30 mins. The MFI of Alexa Fluor® 647 was evaluated by FACSCanto.

[6] = biological target: T1, human PD-L1-Fc protein; assay: ELISA, antibody titrated on coated human PD-L1-Fc, OD 450nm; upper left panel (with Hu67F3G7-1 to -6)
Experimental: (§2) To evaluate antigen binding activity, the humanized antibodies were subjected to ELISA test. Briefly, microtiter plates were coated with human PD-L1-Fc protein at 0.5 μg/ml in PBS, 100 μl/well at 4° C. overnight, then blocked with 200 μl/well of 1% BSA. Three-fold dilutions of humanized antibodies starting from 10 μg/ml were added to each well and incubated for 1 hour at 37° C. The plates were washed with PBS/Tween and then incubated with mouse-anti-human IgG Fab antibody conjugated with Horse Radish Peroxidase (HRP) for 1 hour at 37° C. After washing, the plates were developed with TMB substrate and analyzed by spectrophotometer at OD 450 nm.

[7] = biological target: T1, human PD-L1-Fc protein; assay: ELISA, antibody titrated on coated human PD-L1-Fc, OD 450nm; upper right panel (with Hu67F3G7-7 to -12)
Experimental: as §2

[8] = biological target: T1, human PD-L1-Fc protein; assay: ELISA, antibody titrated on coated human PD-L1-Fc, OD 450nm; lower right panel (with Hu67F3G7-19 to -22)
Experimental: as §2

[9] = biological target: T1, human PD-L1-Fc protein; assay: receptor blocking ELISA: coated human PD-L1-Fc, blocked ligand biotin-labeled human CD80-Fc (Bio-CD80), OD 450nm; panel with Hu67F3G7-22 [cont'd]
Experimental: as §1, with “BSA at 37° C. for 2 hours.” for “BSA.”

[10] = biological target: T1, human PD-L1-Fc protein; assay: receptor blocking ELISA: coated human PD-L1-Fc, blocked ligand biotin-labeled human PD-1-Fc (Bio-PD1), OD 450nm; upper left panel (with Hu67F3G7-2)
Experimental: as §1, with “BSA at 37° C. for 2 hours.” for “BSA.”

[11] = biological target: T1, human PD-L1-Fc protein; assay: receptor blocking ELISA: coated human PD-L1-Fc, blocked ligand biotin-labeled human PD-1-Fc (Bio-PD1), OD 450nm; middle left panel (with Hu67F3G7-5)
Experimental: as §1, with “BSA at 37° C. for 2 hours.” for “BSA.”

[12] = biological target: T1, human PD-L1-Fc protein; assay: receptor blocking ELISA: coated human PD-L1-Fc, blocked ligand biotin-labeled human CD80-Fc (Bio-CD80), OD 450nm; upper left panel (with Hu67F3G7-2)
Experimental: as §1, with “BSA at 37° C. for 2 hours.” for “BSA.”

[13] = biological target: T1, human PD-L1-Fc protein; assay: receptor blocking ELISA: coated human PD-L1-Fc, blocked ligand biotin-labeled human CD80-Fc (Bio-CD80), OD 450nm; upper right panel (with Hu67F3G7-3)
Experimental: as §1, with “BSA at 37° C. for 2 hours.” for “BSA.”

[14] = biological target: T1, human PD-L1-Fc protein; assay: receptor blocking ELISA: coated human PD-L1-Fc, blocked ligand biotin-labeled human CD80-Fc (Bio-CD80), OD 450nm; middle right panel (with Hu67F3G7-7)
Experimental: as §1, with “BSA at 37° C. for 2 hours.” for “BSA.”

T1 sequence (Q9NZQ7 19-238 limits assumed): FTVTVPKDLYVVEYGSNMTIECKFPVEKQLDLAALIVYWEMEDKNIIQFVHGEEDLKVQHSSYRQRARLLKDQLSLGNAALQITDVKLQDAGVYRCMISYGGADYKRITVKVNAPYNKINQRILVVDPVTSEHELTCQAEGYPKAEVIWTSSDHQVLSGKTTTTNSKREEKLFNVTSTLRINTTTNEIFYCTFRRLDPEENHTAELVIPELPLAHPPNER
mouse PD-L1 protein, sequence (Q9EP73 19-239 limits assumed): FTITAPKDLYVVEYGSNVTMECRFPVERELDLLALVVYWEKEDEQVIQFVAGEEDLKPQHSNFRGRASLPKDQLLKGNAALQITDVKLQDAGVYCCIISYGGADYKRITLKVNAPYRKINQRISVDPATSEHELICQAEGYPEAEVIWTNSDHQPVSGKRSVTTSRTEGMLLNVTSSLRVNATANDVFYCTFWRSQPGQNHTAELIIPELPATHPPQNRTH
T2 sequence (Q9NZQ7 19-290): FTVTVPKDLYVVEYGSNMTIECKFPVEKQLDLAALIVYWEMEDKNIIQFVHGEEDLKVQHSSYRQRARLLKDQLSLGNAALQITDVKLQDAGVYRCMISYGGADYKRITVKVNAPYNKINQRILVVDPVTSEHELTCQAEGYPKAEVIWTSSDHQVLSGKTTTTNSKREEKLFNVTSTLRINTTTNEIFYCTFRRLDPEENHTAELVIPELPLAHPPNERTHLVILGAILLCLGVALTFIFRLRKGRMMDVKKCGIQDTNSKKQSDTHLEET
cynomolgus PD-L1 protein, sequence (G7PSE7 entry or part of it): as the sequence (Q9NZQ7 19-238 limits assumed) above, with A33T, A34S, S62N, R68Q, Q82R, F173L, T185A, T192I, H215L counted along it
rat PD-L1 protein, sequence (D4AE25 entry or part of it limits assumed): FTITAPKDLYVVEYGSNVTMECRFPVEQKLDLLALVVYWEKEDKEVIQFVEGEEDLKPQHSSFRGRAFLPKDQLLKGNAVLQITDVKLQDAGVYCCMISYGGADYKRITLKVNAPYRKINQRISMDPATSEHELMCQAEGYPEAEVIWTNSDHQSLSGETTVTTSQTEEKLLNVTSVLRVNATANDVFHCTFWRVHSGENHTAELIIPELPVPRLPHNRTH

EC50 [3]: 0.0068 µg/mL | IC50 [4]: 0.14 µg/mL | EC50 [5]: 0.0577 nM | EC50 [6]: 0.0141 µg/mL | EC50 [7]: 0.0129 µg/mL | EC50 [8]: 0.0147 µg/mL | IC50 [9]: 0.293 µg/mL | IC50 [10]: 0.149 µg/mL | IC50 [11]: 0.149 µg/mL | IC50 [12]: 0.256 µg/mL | IC50 [13]: 0.289 µg/mL | IC50 [14]: 0.283 µg/mL
B1: 67F3G7 chimeric mAb (antibody, V domains shown)
VH: QVKLLQSGAALVKPGASVKMSCKASGYIFTDFWVSWVKQSHEKSLEWIGEIYPNSGVSRYNEKFKGRATMTVDKSTSTAYLELSRLTSEDSAIYYCTKYFGYTYWFGYWGQGTLVTVSS
VL: DTVLTQSPALAVSLGQRITISCRASKSVSTYMHWYQQRSGLQPKLLIYSASHLESGVPSRFSGSGSGTDFTLTIDPVEADDIANYYCQQSNELPVTFGSGTKLEIK
notes: chimeric mAb of the hybridoma clone; also called 67F3G7-chimera
binding result [1]: no binding (tested: dilutions starting from 10 µg/ml) | binding result [2]: no binding (tested: dilutions starting from 10 µg/ml)
